Source: publication PMC12416549 (2024)
Positions count from the first letter of the chain named. Names and notes keep the numbering of the source.

T1: TNFR1 (Homo sapiens, UniProt P19438)
T1 chain: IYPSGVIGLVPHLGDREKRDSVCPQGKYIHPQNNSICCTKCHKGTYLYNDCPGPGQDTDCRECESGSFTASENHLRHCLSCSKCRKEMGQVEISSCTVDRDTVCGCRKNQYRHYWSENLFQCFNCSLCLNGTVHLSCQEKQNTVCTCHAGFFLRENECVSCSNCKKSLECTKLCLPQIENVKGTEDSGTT

B1: L41Y (designed binder)
chain: MTLQELLREEALRRAEAEAFRYALELLAEKFPEQKEYLLDYAEEIESQIRSLSGVDVEDVRKFLDKEWAWVKELLAEHPAELAEVEAARAARLAELRAEVEAKVAA
B2: R8Y (designed binder)
chain: B1 chain with R8Y, Y41L
B3: K62R (designed binder)
chain: B1 chain with Y41L, K62R
B4: P79N (designed binder)
chain: B1 chain with Y41L, P79N
B5: L27E (designed binder)
chain: B1 chain with L27E, Y41L
B6: R50S (designed binder)
chain: B1 chain with Y41L, R50S
B7: E44F (designed binder)
chain: B1 chain with Y41L, E44F
B8: G54Q (designed binder)
chain: B1 chain with Y41L, G54Q
B9: K62L (designed binder)
chain: B1 chain with Y41L, K62L
B10: E81I (designed binder)
chain: B1 chain with Y41L, E81I
B11: E99H (designed binder)
chain: B1 chain with Y41L, E99H
B12: K103E (designed binder)
chain: B1 chain with Y41L, K103E
B13: L26S (designed binder)
chain: B1 chain with L26S, Y41L
B14: P32R (designed binder)
chain: B1 chain with P32R, Y41L
B15: A17F (designed binder)
chain: B1 chain with A17F, Y41L
B16: E46T (designed binder)
chain: B1 chain with Y41L, E46T
B17: E25H (designed binder)
chain: B1 chain with E25H, Y41L
B18: E86P (designed binder)
chain: B1 chain with Y41L, E86P
B19: E101W (designed binder)
chain: B1 chain with Y41L, E101W
B20: L26G (designed binder)
chain: B1 chain with L26G, Y41L
B21: E16H (designed binder)
chain: B1 chain with E16H, Y41L
B22: R14C (designed binder)
chain: B1 chain with R14C, Y41L
B23: A17C (designed binder)
chain: B1 chain with A17C, Y41L
B24: E101M (designed binder)
chain: B1 chain with Y41L, E101M
B25: Y22E (designed binder)
chain: B1 chain with Y22E, Y41L
B26: A19Q (designed binder)
chain: B1 chain with A19Q, Y41L
B27: E29Y (designed binder)
chain: B1 chain with E29Y, Y41L
B28: R14Q (designed binder)
chain: B1 chain with R14Q, Y41L
B29: L12E (designed binder)
chain: B1 chain with L12E, Y41L
B30: L93Y (designed binder)
chain: B1 chain with Y41L, L93Y
B31: L7M (designed binder)
chain: B1 chain with L7M, Y41L
B32: D56P (designed binder)
chain: B1 chain with Y41L, D56P
B33: R97K (designed binder)
chain: B1 chain with Y41L, R97K
B34: K72C (designed binder)
chain: B1 chain with Y41L, K72C
B35: A94M (designed binder)
chain: B1 chain with Y41L, A94M
B36: R14V (designed binder)
chain: B1 chain with R14V, Y41L
B37: A28V (designed binder)
chain: B1 chain with A28V, Y41L
B38: E10Y (designed binder)
chain: B1 chain with E10Y, Y41L
B39: K62A (designed binder)
chain: B1 chain with Y41L, K62A
B40: E46M (designed binder)
chain: B1 chain with Y41L, E46M

Biological target: T1, TNFR1
Experiment: yeast display SC50

Binder	apparent Kd (screen)
B1	0.718 nM
B2	1.05 nM
B3	0.539 nM
B4	0.539 nM
B5	0.869 nM
B6	0.653 nM
B7	16.7 nM
B8	1.05 nM
B9	0.653 nM
B10	0.49 nM
B11	0.49 nM
B12	0.79 nM
B13	0.49 nM
B14	0.539 nM
B15	0.49 nM
B16	0.653 nM
B17	0.718 nM
B18	4.83 nM
B19	0.49 nM
B20	0.446 nM

Binder	apparent Kd (screen)
B21	0.718 nM
B22	0.539 nM
B23	0.446 nM
B24	0.653 nM
B25	0.304 nM
B26	0.446 nM
B27	0.539 nM
B28	0.593 nM
B29	1.27 nM
B30	0.539 nM
B31	2.48 nM
B32	6.43 nM
B33	0.539 nM
B34	0.718 nM
B35	0.718 nM
B36	0.956 nM
B37	2.05 nM
B38	0.653 nM
B39	0.593 nM
B40	0.49 nM
